Activity data for one molecule are collected here from US6013453, “Binding proteins for recognition of DNA” (Medical Research Council).

The target in the series is anti-BCR-ABL 1A-2A-3B/VP16 fusion (synthetic construct). As to the kind of experiment: cell_activity; C3H10T1/2 cells. The text has this:
Having established DNA discrimination in vitro, the inventors wished to test whether the anti-BCR-ABL peptide was capable of site-specific DNA-binding in vivo. The peptide was fused to the VP16 activation domain from herpes simplex virus (Fields 1993 Methods 5, 116–124) and used in transient transfection assays (FIG. 9) to drive production of a CAT (chloramphenicol acetyl transferase) reporter gene from a binding site upstream of the TATA box (Gorman et al., Mol. Cell. Biol. 2, 1044–1051). In detail the experiment was performed thus: reporter plasmids pMCAT6BA, pMCAT6A, and pMCAT6B, were constructed by inserting 6 copies of the p190^BCR-ABL target site ([…], SEQ ID No. 121), the c-ABL second exon-intron junction sequence ([…], Seq ID No. 122), or the BCR first exon-intron junction sequence ([…] Seq ID No. 123) respectively, into pMCAT3 (Luscher et al., 1989 Genes Dev. 3, 1507–1517). The anti-BCR-ABL/VP16 expression vector was generated by inserting the in-frame fusion between the activation domain of herpes simplex virus VP16 (Fields 1993) and the Zn finger peptide in the pEF-BOS vector (Mizushima & Shigezaku 1990 Nucl. Acids Res. 18, 5322). C3H10T1/2 cells were transiently co-transfected with […] of reporter plasmid and […] of expression vector. […]

B1: p190 BCR-ABL site x6 reporter pMCAT6BA (dsDNA)
DNA 1: CGCAGAAGCC
DNA 2: GGCTTCTGCG
The molecule B1 showed an activity of about 30 fold CAT activation.
